Data as given in patent publication US20120316071A1 (published 2012).

Assays:
[1] = target: T1, rHuman Notch-1/Fc Chimera, CF (R&D Systems Cat#3647-TK) (human, UniProt P46531 19-526); test: MSD Multispot ECL, antigen spotted on plate, Fab at 7.5 nM; blank spot 217
T1 construct: Bought Fc chimera; Fc part of the bought chimera not given

[2] = target: T2, rHuman P-Cadherin/Fc Chimera, CF (R&D Systems Cat#861-PC) (human, UniProt P22223 108-654); test: as above
T2 construct: Bought Fc chimera; Fc part of the bought chimera not given

[3] = target: T3, rHuman Erythropoietin R/Fc Chimera, CF (R&D Systems Cat#963-ER) (human, UniProt P19235 25-250); test: as above
T3 construct: Bought Fc chimera; also called EPO R/Fc; Epo R; Fc part of the bought chimera not given
T3 sequence (looked up): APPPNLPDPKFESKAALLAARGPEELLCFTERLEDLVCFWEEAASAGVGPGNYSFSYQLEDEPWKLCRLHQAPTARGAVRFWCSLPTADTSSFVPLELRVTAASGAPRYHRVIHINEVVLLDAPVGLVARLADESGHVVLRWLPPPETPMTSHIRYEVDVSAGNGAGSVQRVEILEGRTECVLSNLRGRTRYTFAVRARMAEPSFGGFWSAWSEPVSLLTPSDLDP

[4] = target: T4, rHuman Erythropoietin R/Fc Chimera, CF (R&D Systems Cat#963-ER) (human, UniProt P19235 25-250); test: Multispot ECL (MSD) assay, antigen spotted on plate, Fab at 0.0624 µM; blank spot 960
T4 construct: Bought recombinant protein; also called EPO R/Fc; Epo R; Fc part of the bought chimera not given
T4 sequence (looked up): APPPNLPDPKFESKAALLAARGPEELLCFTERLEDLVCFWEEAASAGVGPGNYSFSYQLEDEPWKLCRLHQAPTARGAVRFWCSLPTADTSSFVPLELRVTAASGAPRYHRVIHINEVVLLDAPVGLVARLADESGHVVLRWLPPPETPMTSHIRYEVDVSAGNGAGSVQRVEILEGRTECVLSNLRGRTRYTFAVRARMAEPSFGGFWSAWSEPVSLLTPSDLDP

[5] = target: T5, Recombinant Human DLL4 (R&D Systems Cat#1506-D4/CF) (human, UniProt Q9NR61 27-524); test: as above
T5 construct: Bought recombinant protein; also called delta-like protein 4; rHuman DLL4

[6] = target: T6, rHuman ErbB2/Fc Chimera, CF (R&D Systems Cat#1129-ER) (human, UniProt P04626 23-652); test: as above
T6 construct: Bought recombinant protein; also called human epidermal growth factor 2 receptor (ErbB2); Fc part of the bought chimera not given

[7] = target: T7, rHuman EGF R/Fc Chimera, CF (R&D Systems Cat#344-ER) (human, UniProt P00533 25-645); test: as above
T7 construct: Bought recombinant protein; also called epidermal growth factor receptor (EGF R); Fc part of the bought chimera not given

[8] = target: T8, rHuman HGF R/c-MET/Fc Chimera, CF (R&D Systems Cat#358-MT/CF) (human, UniProt P08581 25-932); test: as above
T8 construct: Bought recombinant protein; also called HGF R/Fc; hepatocyte growth factor receptor (HGF R/c-Met); Fc part of the bought chimera not given

[9] = target: T9, rHuman Notch-1/Fc Chimera, CF (R&D Systems Cat#3647-TK) (human, UniProt P46531 19-526); test: as above
T9 construct: Bought recombinant protein; Fc part of the bought chimera not given

[10] = target: T10, rHuman CD44/Fc Chimera, CF (R&D Systems Cat#3660-CD) (human, UniProt P16070 21-220); test: as above
T10 construct: Bought recombinant protein; Fc part of the bought chimera not given

[11] = target: T11, rHuman IGF-1 sR, (IGF-1 sR), CF (R&D Systems Cat#391-GR) (human, UniProt P08069 31-932); test: as above
T11 construct: Bought recombinant soluble receptor; also called insulin-like growth factor-1 soluble receptor

[12] = target: T12, rHuman P-Cadherin/Fc Chimera, CF (R&D Systems Cat#861-PC) (human, UniProt P22223 108-654); test: as above
T12 construct: Bought recombinant protein; Fc part of the bought chimera not given

[13] = target: T13, rHuman Erythropoietin R/Fc Chimera, CF (R&D Systems Cat#963-ER) (human, UniProt P19235 25-250); test: Multispot ECL (MSD) titration; antigen spotted on plate; Fab 24.5 nM; blank spot 149
T13 construct: Bought Fc chimera; also called EPO R/Fc; EPO R; Fc part of the bought chimera not given
T13 sequence (looked up): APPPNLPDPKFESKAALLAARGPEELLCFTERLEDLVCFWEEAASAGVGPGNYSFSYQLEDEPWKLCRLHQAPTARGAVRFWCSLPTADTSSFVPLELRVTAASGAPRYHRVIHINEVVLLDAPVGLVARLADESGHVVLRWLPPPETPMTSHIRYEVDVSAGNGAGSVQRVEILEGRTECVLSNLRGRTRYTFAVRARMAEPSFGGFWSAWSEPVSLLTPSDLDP

[14] = target: T14, Recombinant Human DLL4 (R&D Systems Cat#1506-D4/CF) (human, UniProt Q9NR61 27-524); test: as above
T14 construct: Bought recombinant protein; also called delta-like protein 4; rHuman DLL4

[15] = target: T15, rHuman ErbB2/Fc Chimera, CF (R&D Systems Cat#1129-ER) (human, UniProt P04626 23-652); test: as above
T15 construct: Bought Fc chimera; also called human epidermal growth factor 2 receptor; Fc part of the bought chimera not given

[16] = target: T16, rHuman HGF R/c-MET/Fc Chimera, CF (R&D Systems Cat#358-MT/CF) (human, UniProt P08581 25-932); test: as above
T16 construct: Bought Fc chimera; also called HGF R/Fc; hepatocyte growth factor receptor; Fc part of the bought chimera not given

[17] = target: T17, rHuman CD44/Fc Chimera, CF (R&D Systems Cat#3660-CD) (human, UniProt P16070 21-220); test: as above
T17 construct: Bought Fc chimera; Fc part of the bought chimera not given

[18] = target: T18, rHuman P-Cadherin/Fc Chimera, CF (R&D Systems Cat#861-PC) (human, UniProt P22223 108-654); test: as above
T18 construct: Bought Fc chimera; Fc part of the bought chimera not given

B1: Fab VH6-1_IGHD3-3*01_IGHJ4*01 & V4-3_IGLJ4*01 (Fab, V domains shown)
VH: QVQLQQSGPGLVKPSQTLSLTCAISGDSVSSNSAAWNWIRQSPSRGLEWLGRTYYRSKWYNDYAVSVKSRITINPDTSKNQFSLQLNSVTPEDTAVYYCAREYYDFWSGYYTDYFDYWGQGTLVTVSS
VL: QPVLTQPTSLSASPGASARLTCTLRSGINLGSYRIFWYQQKPESPPRYLLSYYSDSSKHQGSGVPSRFSGSKDASSNAGILVISGLQSEDEADYYCMIWHSSASFVFGGGTQLIIL
notes: Tested as a purified germline Fab made in E. coli; The VH was cloned into plasmid A (CH1 constant region, His6 and Flag tags) and the lambda VL into plasmid E (lambda CL)
- ECL signal [1]: 392
- ECL signal [2]: 352
- ECL signal [3]: 443

B2: Fab VH1-46_IGHD7-27*01_IGHJ2*01 & L6_IGKJ1*01 (Fab, V domains shown)
VH: QVQLVQSGAEVKKPGASVKVSCKASGYTFTSYYMHWVRQAPGQGLEWMGIINPSGGSTSYAQKFQGRVTMTRDTSTSTVYMELSSLRSEDTAVYYCARANWGYWYFDLWGRGTLVTVSS
VL: not shown
notes: Germline Fab made in E. coli; VH was cloned in Plasmid A (CH1 constant region, His6 and Flag tags) and the kappa VL in Plasmid C (kappa CL); Only the variable domains are tied to this Fab by name
- ECL signal [4]: 2680
- ECL signal [5]: 2580
- ECL signal [6]: 2150
- ECL signal [7]: 2420
- ECL signal [8]: 2450
- ECL signal [9]: 2350
- ECL signal [10]: 2110
- ECL signal [11]: 2030
- ECL signal [12]: 4230

B3: Fab VH1-46_IGHD3-10*01_IGHJ4*01 & O1_IGKJ1*01 (Fab, V domains shown)
VH: QVQLVQSGAEVKKPGASVKVSCKASGYTFTSYYMHWVRQAPGQGLEWMGIINPSGGSTSYAQKFQGRVTMTRDTSTSTVYMELSSLRSEDTAVYYCAREYYYGSGSYYNDYFDYWGQGTLVTVSS
VL: DIVMTQTPLSLPVTPGEPASISCRSSQSLLDSDDGNTYLDWYLQKPGQSPQLLIYTLSYRASGVPDRFSGSGSGTDFTLKISRVEAEDVGVYYCMQRIEFPSWTFGQGTKVEIKR
notes: Germline library Fab expressed in E. coli; VH was cloned into Plasmid A (CH1 constant region, His6 and Flag tags); The kappa VL was cloned into Plasmid C (kappa CL)
- ECL signal [13]: 4530
- ECL signal [14]: 339
- ECL signal [15]: 241
- ECL signal [16]: 211
- ECL signal [17]: 267
- ECL signal [18]: 257
